Results reported in patent US20130108613A1.

Target: monomeric synthetic human Aβ1-42 peptide (human)
Experiment: cell-based or functional assay

Work on “recombinant NIa (nuclear inclusion a) protease of Turnip mosaic virus (TuMV), purified from E. coli (from UniProt P89509 2117-2359) (enzyme)” yielded a reduction of monomeric Aβ level, densitometry of Western blot (6E10), 3 hrs at 25 °C, NIa pre-incubated with the cysteine protease inhibitor NEM of 33%.
